Here are results for 21 molecules from patent publication US6878804B1, “Synthesis of template-fixed β-hairpin loop mimetics” (University of Zurich, priority 1999, dated 2005).

T1: platelet-derived growth factor β-receptor (PDGFR-β)
T1 chain: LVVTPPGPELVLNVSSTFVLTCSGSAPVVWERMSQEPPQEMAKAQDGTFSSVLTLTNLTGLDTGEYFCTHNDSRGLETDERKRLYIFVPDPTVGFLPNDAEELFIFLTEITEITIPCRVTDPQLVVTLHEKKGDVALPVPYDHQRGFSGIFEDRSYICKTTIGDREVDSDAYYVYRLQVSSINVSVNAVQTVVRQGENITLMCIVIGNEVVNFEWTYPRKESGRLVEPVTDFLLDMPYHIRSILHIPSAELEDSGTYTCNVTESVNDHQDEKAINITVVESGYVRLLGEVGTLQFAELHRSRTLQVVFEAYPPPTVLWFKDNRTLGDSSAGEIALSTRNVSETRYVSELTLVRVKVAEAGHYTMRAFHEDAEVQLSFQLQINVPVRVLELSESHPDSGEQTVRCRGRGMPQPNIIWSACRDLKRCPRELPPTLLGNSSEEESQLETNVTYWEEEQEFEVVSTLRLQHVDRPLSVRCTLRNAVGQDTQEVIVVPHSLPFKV

B1: target cyclic peptide 18 (peptide)
peptide: cyclo(PWKVRKKKW[dP])
SMILES: CC(C)[C@@H]1NC(=O)[C@H](CCCCN)NC(=O)[C@H](Cc2c[nH]c3ccccc23)NC(=O)[C@@H]2CCCN2C(=O)[C@H]2CCCN2C(=O)[C@H](Cc2c[nH]c3ccccc23)NC(=O)[C@H](CCCCN)NC(=O)[C@H](CCCCN)NC(=O)[C@H](CCCCN)NC(=O)[C@H](CCCNC(=N)N)NC1=O
notes: also called ^LP-W-K-V-R / ^DP-W-K-K-K
B2: target cyclic peptide 21 (peptide)
peptide: cyclo(PAWVRKKWA[dP])
SMILES: CC(C)[C@@H]1NC(=O)[C@H](Cc2c[nH]c3ccccc23)NC(=O)[C@H](C)NC(=O)[C@@H]2CCCN2C(=O)[C@H]2CCCN2C(=O)[C@H](C)NC(=O)[C@H](Cc2c[nH]c3ccccc23)NC(=O)[C@H](CCCCN)NC(=O)[C@H](CCCCN)NC(=O)[C@H](CCCNC(=N)N)NC1=O
notes: also called ^LP-A-W-V-R / ^DP-A-W-K-K
B3: target cyclic peptide 14 (peptide)
peptide: cyclo(PWYVRKKYW[dP])
SMILES: CC(C)[C@@H]1NC(=O)[C@H](Cc2ccc(O)cc2)NC(=O)[C@H](Cc2c[nH]c3ccccc23)NC(=O)[C@@H]2CCCN2C(=O)[C@H]2CCCN2C(=O)[C@H](Cc2c[nH]c3ccccc23)NC(=O)[C@H](Cc2ccc(O)cc2)NC(=O)[C@H](CCCCN)NC(=O)[C@H](CCCCN)NC(=O)[C@H](CCCNC(=N)N)NC1=O
notes: also called ^LP-W-Y-V-R / ^DP-W-Y-K-K
B4: target cyclic peptide 13 (peptide)
peptide: cyclo(PWIVRKKPW[dP])
SMILES: CC[C@H](C)[C@@H]1NC(=O)[C@H](Cc2c[nH]c3ccccc23)NC(=O)[C@@H]2CCCN2C(=O)[C@H]2CCCN2C(=O)[C@H](Cc2c[nH]c3ccccc23)NC(=O)[C@@H]2CCCN2C(=O)[C@H](CCCCN)NC(=O)[C@H](CCCCN)NC(=O)[C@H](CCCNC(=N)N)NC(=O)[C@H](C(C)C)NC1=O
notes: also called ^LP-W-I-V-R / ^DP-W-P-K-K
B5: target cyclic peptide 16 (peptide)
peptide: cyclo(PWAVRKKAW[dP])
SMILES: CC(C)[C@@H]1NC(=O)[C@H](C)NC(=O)[C@H](Cc2c[nH]c3ccccc23)NC(=O)[C@@H]2CCCN2C(=O)[C@H]2CCCN2C(=O)[C@H](Cc2c[nH]c3ccccc23)NC(=O)[C@H](C)NC(=O)[C@H](CCCCN)NC(=O)[C@H](CCCCN)NC(=O)[C@H](CCCNC(=N)N)NC1=O
notes: also called ^LP-W-A-V-R / ^DP-W-A-K-K
B6: target cyclic peptide 7 (peptide)
peptide: cyclo(PYIVRKKPY[dP])
SMILES: CC[C@H](C)[C@@H]1NC(=O)[C@H](Cc2ccc(O)cc2)NC(=O)[C@@H]2CCCN2C(=O)[C@H]2CCCN2C(=O)[C@H](Cc2ccc(O)cc2)NC(=O)[C@@H]2CCCN2C(=O)[C@H](CCCCN)NC(=O)[C@H](CCCCN)NC(=O)[C@H](CCCNC(=N)N)NC(=O)[C@H](C(C)C)NC1=O
notes: also called ^LP-Y-I-V-R / ^DP-Y-P-K-K
B7: target cyclic peptide 10 (peptide)
peptide: cyclo(PYAVRKKAY[dP])
SMILES: CC(C)[C@@H]1NC(=O)[C@H](C)NC(=O)[C@H](Cc2ccc(O)cc2)NC(=O)[C@@H]2CCCN2C(=O)[C@H]2CCCN2C(=O)[C@H](Cc2ccc(O)cc2)NC(=O)[C@H](C)NC(=O)[C@H](CCCCN)NC(=O)[C@H](CCCCN)NC(=O)[C@H](CCCNC(=N)N)NC1=O
notes: also called ^LP-Y-A-V-R / ^DP-Y-A-K-K
B8: target cyclic peptide 12 (peptide)
peptide: cyclo(PYKVRKKKY[dP])
SMILES: CC(C)[C@@H]1NC(=O)[C@H](CCCCN)NC(=O)[C@H](Cc2ccc(O)cc2)NC(=O)[C@@H]2CCCN2C(=O)[C@H]2CCCN2C(=O)[C@H](Cc2ccc(O)cc2)NC(=O)[C@H](CCCCN)NC(=O)[C@H](CCCCN)NC(=O)[C@H](CCCCN)NC(=O)[C@H](CCCNC(=N)N)NC1=O
notes: also called ^LP-Y-K-V-R / ^DP-Y-K-K-K
B9: target cyclic peptide 5 (peptide)
peptide: cyclo(PESVRKKSI[dP])
SMILES: CC[C@H](C)[C@@H]1NC(=O)[C@H](CO)NC(=O)[C@H](CCCCN)NC(=O)[C@H](CCCCN)NC(=O)[C@H](CCCNC(=N)N)NC(=O)[C@H](C(C)C)NC(=O)[C@H](CO)NC(=O)[C@H](CCC(=O)O)NC(=O)[C@@H]2CCCN2C(=O)[C@H]2CCCN2C1=O
notes: also called compound 5
B10: target cyclic peptide 1 (peptide)
peptide: cyclo(PEIVRKKPI[dP])
SMILES: CC[C@H](C)[C@@H]1NC(=O)[C@H](CCC(=O)O)NC(=O)[C@@H]2CCCN2C(=O)[C@H]2CCCN2C(=O)[C@H]([C@@H](C)CC)NC(=O)[C@@H]2CCCN2C(=O)[C@H](CCCCN)NC(=O)[C@H](CCCCN)NC(=O)[C@H](CCCNC(=N)N)NC(=O)[C@H](C(C)C)NC1=O
notes: mimic of PDGF loop III on a diproline template; also called compound 1
B11: target cyclic peptide 3 (peptide)
peptide: cyclo(PEWVRKKWI[dP])
SMILES: CC[C@H](C)[C@@H]1NC(=O)[C@H](Cc2c[nH]c3ccccc23)NC(=O)[C@H](CCCCN)NC(=O)[C@H](CCCCN)NC(=O)[C@H](CCCNC(=N)N)NC(=O)[C@H](C(C)C)NC(=O)[C@H](Cc2c[nH]c3ccccc23)NC(=O)[C@H](CCC(=O)O)NC(=O)[C@@H]2CCCN2C(=O)[C@H]2CCCN2C1=O
notes: also called compound 3
B12: target cyclic peptide 22 (peptide)
peptide: cyclo(PAAVRKKAA[dP])
SMILES: CC(C)[C@@H]1NC(=O)[C@H](C)NC(=O)[C@H](C)NC(=O)[C@@H]2CCCN2C(=O)[C@H]2CCCN2C(=O)[C@H](C)NC(=O)[C@H](C)NC(=O)[C@H](CCCCN)NC(=O)[C@H](CCCCN)NC(=O)[C@H](CCCNC(=N)N)NC1=O
notes: also called ^LP-A-A-V-R / ^DP-A-A-K-K
B13: target cyclic peptide 19 (peptide)
peptide: cyclo(PAIVRKKPA[dP])
SMILES: CC[C@H](C)[C@@H]1NC(=O)[C@H](C)NC(=O)[C@@H]2CCCN2C(=O)[C@H]2CCCN2C(=O)[C@H](C)NC(=O)[C@@H]2CCCN2C(=O)[C@H](CCCCN)NC(=O)[C@H](CCCCN)NC(=O)[C@H](CCCNC(=N)N)NC(=O)[C@H](C(C)C)NC1=O
notes: also called ^LP-A-I-V-R / ^DP-A-P-K-K
B14: target cyclic peptide 11 (peptide)
peptide: cyclo(PYSVRKKSY[dP])
SMILES: CC(C)[C@@H]1NC(=O)[C@H](CO)NC(=O)[C@H](Cc2ccc(O)cc2)NC(=O)[C@@H]2CCCN2C(=O)[C@H]2CCCN2C(=O)[C@H](Cc2ccc(O)cc2)NC(=O)[C@H](CO)NC(=O)[C@H](CCCCN)NC(=O)[C@H](CCCCN)NC(=O)[C@H](CCCNC(=N)N)NC1=O
notes: also called ^LP-Y-S-V-R / ^DP-Y-S-K-K
B15: target cyclic peptide 17 (peptide)
peptide: cyclo(PWSVRKKSW[dP])
SMILES: CC(C)[C@@H]1NC(=O)[C@H](CO)NC(=O)[C@H](Cc2c[nH]c3ccccc23)NC(=O)[C@@H]2CCCN2C(=O)[C@H]2CCCN2C(=O)[C@H](Cc2c[nH]c3ccccc23)NC(=O)[C@H](CO)NC(=O)[C@H](CCCCN)NC(=O)[C@H](CCCCN)NC(=O)[C@H](CCCNC(=N)N)NC1=O
notes: also called ^LP-W-S-V-R / ^DP-W-S-K-K
B16: target cyclic peptide 23 (peptide)
peptide: cyclo(PASVRKKSA[dP])
SMILES: CC(C)[C@@H]1NC(=O)[C@H](CO)NC(=O)[C@H](C)NC(=O)[C@@H]2CCCN2C(=O)[C@H]2CCCN2C(=O)[C@H](C)NC(=O)[C@H](CO)NC(=O)[C@H](CCCCN)NC(=O)[C@H](CCCCN)NC(=O)[C@H](CCCNC(=N)N)NC1=O
notes: also called ^LP-A-S-V-R / ^DP-A-S-K-K
B17: target cyclic peptide 2 (peptide)
peptide: cyclo(PEYVRKKYI[dP])
SMILES: CC[C@H](C)[C@@H]1NC(=O)[C@H](Cc2ccc(O)cc2)NC(=O)[C@H](CCCCN)NC(=O)[C@H](CCCCN)NC(=O)[C@H](CCCNC(=N)N)NC(=O)[C@H](C(C)C)NC(=O)[C@H](Cc2ccc(O)cc2)NC(=O)[C@H](CCC(=O)O)NC(=O)[C@@H]2CCCN2C(=O)[C@H]2CCCN2C1=O
notes: also called compound 2
B18: target cyclic peptide 4 (peptide)
peptide: cyclo(PEAVRKKAI[dP])
SMILES: CC[C@H](C)[C@@H]1NC(=O)[C@H](C)NC(=O)[C@H](CCCCN)NC(=O)[C@H](CCCCN)NC(=O)[C@H](CCCNC(=N)N)NC(=O)[C@H](C(C)C)NC(=O)[C@H](C)NC(=O)[C@H](CCC(=O)O)NC(=O)[C@@H]2CCCN2C(=O)[C@H]2CCCN2C1=O
notes: also called compound 4
B19: target cyclic peptide 24 (peptide)
peptide: cyclo(PAKVRKKKA[dP])
SMILES: CC(C)[C@@H]1NC(=O)[C@H](CCCCN)NC(=O)[C@H](C)NC(=O)[C@@H]2CCCN2C(=O)[C@H]2CCCN2C(=O)[C@H](C)NC(=O)[C@H](CCCCN)NC(=O)[C@H](CCCCN)NC(=O)[C@H](CCCCN)NC(=O)[C@H](CCCNC(=N)N)NC1=O
notes: also called ^LP-A-K-V-R / ^DP-A-K-K-K
B20: target cyclic peptide 20 (peptide)
peptide: cyclo(PAYVRKKYA[dP])
SMILES: CC(C)[C@@H]1NC(=O)[C@H](Cc2ccc(O)cc2)NC(=O)[C@H](C)NC(=O)[C@@H]2CCCN2C(=O)[C@H]2CCCN2C(=O)[C@H](C)NC(=O)[C@H](Cc2ccc(O)cc2)NC(=O)[C@H](CCCCN)NC(=O)[C@H](CCCCN)NC(=O)[C@H](CCCNC(=N)N)NC1=O
notes: also called ^LP-A-Y-V-R / ^DP-A-Y-K-K

Non-standard residues stand in square brackets, D forms with d. Bounds are passed on as bounds.

In this assay the target is T1, platelet-derived growth factor …. Put plainly: solid-phase competition, displacement of 125I-PDGF-BB from plate-immobilised PDGFR-β. (Displacement assays read how much labelled ligand stays bound in the presence of the test substance.)
The IC50 is the concentration needed to halve the response being measured. In turn, B1 had an IC50 of 500 µM. With B2, the IC50 was 2000 µM.

In turn, B3 gave a concentration for half-maximal inhibition (IC50) of 170 µM. The same measure for B4: 260 µM; for B5: 800 µM. On to B6, for which the IC50 was found to be 1500 µM.

B7: the half-maximal inhibitory concentration (IC50) is 2000 µM.

B8 showed an IC50 of 1500 µM. Consider B9, for which the IC50 stood at 2500 µM.

B10 displayed a half-maximal inhibitory concentration (IC50) of 2200 µM. Consider B11, for which the half-maximal inhibitory concentration (IC50) amounted to 1500 µM. In the case of B12, the IC50 is under 2500 µM. The same measure for B13: under 2500 µM. With B14 the figure was 2000 µM; with cyclo(PYWVRKKWY[dP]) (also called ^LP-Y-W-V-R / ^DP-Y-W-K-K) [target cyclic peptide 9], 500 µM; with B15, 800 µM. The same measure for B16: 2500 µM.

For B17, the half-maximal inhibitory concentration (IC50) was 2000 µM. The same measure for B18: under 2500 µM; for B19: 2500 µM. The molecule B20 came in with a 50% inhibitory concentration (IC50) of 2000 µM.
